# B1: Huntingtin-associated protein 1 (Homo sapiens), P54257-2 (parent)
# chain: MRPKRLGRCCAGSRLGPGDPAALTCAPSPSASPAPEPSAQPQARGTGQRVGSRATSGSQFLSEARTGARPASEAGAKAGARRPSAFSAIQGDVRSMPDNSDAPWTRFVFQGPFGSRATGRGTGKAAGIWKTPAAYVGRRPGVSGPERAAFIRELEEALCPNLPPPVKKITQEDVKVMLYLLEELLPPVWESVTYGMVLQRERDLNTAARIGQSLVKQNSVLMEENSKLEALLGSAKEEILYLRHQVNLRDELLQLYSDSDEEDEDEEEEEEEKEAEEEQEEEEAEEDLQCAHPCDAPKLISQEALLHQHHCPQLEALQEKLRLLEEENHQLREEASQLDTLEDEEQMLILECVEQFSEASQQMAELSEVLVLRLENYERQQQEVARLQAQVLKLQQRCRMYGAETEKLQKQLASEKEIQMQLQEEETLPGFQETLAEELRTSLRRMISDPVYFMERNYEMPRGDTSSLRYDFRYSEDREQVRGFEAEEGLMLAADIMRGEDFTPAEEFVPQEELGAAKKVPAEEGVMEEAELVSEETEGWEEVELELDEATRMNVVTSALEASGLGPSHLDMNYVLQQLANWQDAHYRRQLRWKMLQKGECPHGALPAASRTSCRSSCR
# Variants of: B1
# Settings: with hd_human HTT
row,Variant,effect of a mutation on the interaction
1,T441M,increasing interaction
